Assay [1] concerns the target T1, human hepatocyte growth factor (HGF) (human, UniProt P14210 32-728).
T1 construct: Recombinant protein; The mature protein is a heterodimer of the alpha and beta subunits; also called human HGF; full length HGF
As to the kind of experiment: BIAcore 3000, kinetic method: antibody captured on immobilized Protein G, human HGF (0-100 nM) injected. From the text:
The running buffer for those analyses was PBS with 0.005% P20 surfactant (BIAcore, Inc. Piscataway, N.J.). Recombinant Protein G (Pierce, Rockford, Ill.) was immobilized to a research grade CM5 sensor chip (Biacore, Inc. Piscataway, N.J.) via primary amine groups using the Amine Coupling Kit (Biacore, Inc. Piscataway, N.J.), according to the manufacturer's instructions.
In six separate samples, about 200 resonance units (RU) of each of the six antibodies to HGF was separately attached to immobilized Protein G following the manufacturer's instructions. Samples comprising various concentrations (0-100 nM) of human HGF were injected over the bound antibody surface at a flow rate of 50 μl/min for 3 minutes. Antibody binding kinetic parameters including kₐ (association rate constant), kd (dissociation rate constant), and KD (dissociation equilibrium constant) were determined using the BIA evaluation 3.1 computer program (BIAcore, Inc. Piscataway, N.J.). Lower dissociation equilibrium constants indicate greater affinity of the antibody for HGF.
(In general: In SPR one partner is held on a chip, and binding of the other changes the refractive index at the surface.)

In assay [2] the target is T1, human hepatocyte growth factor (HGF). Description: neutralization ELISA (left table): inhibition of the binding of soluble Met (2 nM) to plate-coated HGF, detected with biotinylated anti-cMetR antibody and Eu-streptavidin; column head 'IC50 IP (nM)'. The protocol: (§1) A neutralization ELISA assay was developed to assess whether the antibodies discussed in Example 6 could interrupt Met-HGF binding. Delphia 96-well plates (Cat#: AAAND-0001, Wallac Inc., Gaithersburg, Md.) were coated with HGF by adding 100 μl of HGF at 6.25 μg/ml per well. The plates were incubated at 37° C. for 1 hour or at 4° C. overnight. The plates were then blocked with 5% BSA (Cat#50-61-00, KPL, Gaithersburg, Md.) in PBS containing 0.1% Tween 20 for 1 hour at room temperature with shaking.
(§2) Test samples were prepared by separately mixing soluble Met (2 nM, 0.256 μg/ml) with different concentrations of a particular antibody to HGF being tested. The concentrations tested were: 667 nM, 223 nM, 74.1 nM, 24.7 nM, 8.2 nM, 2.7 nM, 0.91 nM, 0.30 nM, 0.10 nM, and 0.034 nM. A volume of 100 μl of a test sample was added to each well of the plates. The plates were then incubated at 4° C. overnight and then washed 4 times with PBS containing 0.1% Tween 20. Next, 100 μl per well of Biotinylated anti-cMetR antibody (Cat#: BAF358, R&D Systems Inc., Minneapolis, Minn.) at 2 μg/ml, was added. […] The plates were then incubated for 2 hours with shaking, and were washed 4 times with PBS containing 0.1% Tween 20. Eu-streptavidin (1:1000 dilution in Assay buffer) (Cat#1244-360, Wallac Inc., Gaithersburg, Md.) was added and the plates were shaken at room temperature for 1 hour. The plates were then washed 4 times with PBS containing 0.1% Tween 20. Next, 100 μl of enhancement buffer (Wallac Inc., Cat#: 1244-105, Gaithersburg, Md.) was added. After at least for 5 minutes, the plates were read using Europium method on Victor 2 (1420 Multilabel Counter, Wallac Inc., Gaithersburg, Md.).
(§3) Percent inhibition of Met binding to HGF (i.e. neutralization) was calculated and IC₅₀ values were determined using the 4 parameter fit equation Excelfit, Version 2.0.6, (Microsoft Inc, Seattle, Wash.). In the presence of the antibodies to HGF discussed in Examples 6, Met binding to HGF was neutralized.
(An ELISA detects its analyte on a solid surface through an enzyme-linked reagent.)

Assay [3] has the same target. As to the kind of experiment: cell-based or functional assay.
For assay [4], the target named is T2, mouse HGF (mouse, UniProt Q08048 33-728).
T2 construct: also called recombinant mouse HGF; mHGF
Description: FACS bead assay: antibody incubated with the avidin fusion of mouse HGF, captured on biotin-coated beads; FITC anti-avidin (x) against PE goat anti-human F(ab')2 (y). The protocol:
After incubation, the fusion proteins in each sample were separately captured using biotin-coated beads (Spherotech Inc., Libertyville, Ill., Cat # TP-60-5). The resulting bead-protein complexes were labeled by adding FITC labeled anti-avidin antibody (Vector Lab, Burlingame, Calif., Cat. # SP-2040). The presence of antibodies to HGF was determined by adding phycoerythrin (PE) labeled goat anti-human F(ab′)2 antibody (Southern Biotech Associates, Inc, Birmingham, Ala., Cat #2043-09).
Those samples were then subjected to Fluorescence Activated Cell Sorter (FACS) analysis. Bead complexes labeled by FITC (which indicated the presence of avidin) and/or PE (which indicated the presence of antibody to HGF) were detected on a Becton Dickinson Bioscience FACScan (BD, Franklin Lakes, N.J.).

Assay [5] addresses T1, human hepatocyte growth factor (HGF). Description: neutralization ELISA (right table): inhibition of the binding of soluble Met (2 nM) to plate-coated HGF, detected with biotinylated anti-cMetR antibody and Eu-streptavidin; column head 'IC50 IP (nM)'. The protocol: as §1, §2, §3
Assay [6] has the same target. As to the kind of experiment: BIAcore 3000, equilibrium/solution method: antibody (0.01-50 nM) incubated with human HGF (0.05 nM and 1 nM), free HGF measured on a chip carrying the same antibody. The protocol: That method was performed with a BIAcore®3000 (Biacore, Inc., Piscataway, N.J.) using PBS with 0.005% P20 surfactant (BIAcore, Inc. Piscataway, N.J.) as running buffer. The four antibodies to HGF were separately immobilized to research grade CM5 sensor chips (Biacore, Inc. Piscataway, N.J.) via primary amine groups using an Amine Coupling Kit (Biacore, Inc. Piscataway, N.J.) following the manufacturer's instructions.
In separate assays, each of the four antibodies to HGF, over a range of concentrations (from 0.01 nM to 50 nM) was separately incubated with each of two different concentrations (0.05 nM and 1 nM) of human HGF in PBS with 0.005% P-20 and 0.1 mg/mL BSA at room temperature for at least six hours. Each of those samples was then injected over a surface of a CM5 sensor chip onto which the same antibody to HGF had been immobilized. The binding signal obtained was proportional to the free HGF in solution. The dissociation equilibrium constant (KD) was obtained from nonlinear regression analysis of the competition curves using a dual-curve one-site homogeneous binding model (KinExA software, Sapidyne Instruments Inc., Boise Id.).

Assay [7] deals with T2, mouse HGF. Description: Western blot, non-reducing and reducing SDS-PAGE. The method, then:
Human HGF and mouse HGF were run on separate lanes of SDS PAGE gels. Human HGF and mouse HGF were each separately run at 100 ng/lane and at 10 ng/lane. Some gels were run under non-reducing conditions and other separate gels were run under reducing conditions using beta-mercaptoethanol. The human HGF and mouse HGF in the SDS PAGE gels were transferred to nitrocellulose membranes. Those membranes were separately incubated with one of the ten antibodies to HGF described in Example 6. Each of the ten antibodies to HGF was separately incubated with nitrocellulose membranes from gels containing human HGF and mouse HGF under reducing and with nitrocellulose membranes from gels containing human HGF and mouse HGF under non-reducing conditions. The membranes were then incubated with a goat anti-human IgG antibody linked to HRP (Pierce, Rockford, Ill., Cat. #31412). Signal from that goat anti-human IgG antibody linked to HRP was detected by […] (ECL™; Amersham Pharmacia Biotech, Piscataway, N.J., Cat. # RPN₂₁₀₆) following the manufacturer's instructions.
In general terms: In western blotting, separated proteins are transferred to a membrane and probed.

T1 sequence (P14210 32-728 limits assumed): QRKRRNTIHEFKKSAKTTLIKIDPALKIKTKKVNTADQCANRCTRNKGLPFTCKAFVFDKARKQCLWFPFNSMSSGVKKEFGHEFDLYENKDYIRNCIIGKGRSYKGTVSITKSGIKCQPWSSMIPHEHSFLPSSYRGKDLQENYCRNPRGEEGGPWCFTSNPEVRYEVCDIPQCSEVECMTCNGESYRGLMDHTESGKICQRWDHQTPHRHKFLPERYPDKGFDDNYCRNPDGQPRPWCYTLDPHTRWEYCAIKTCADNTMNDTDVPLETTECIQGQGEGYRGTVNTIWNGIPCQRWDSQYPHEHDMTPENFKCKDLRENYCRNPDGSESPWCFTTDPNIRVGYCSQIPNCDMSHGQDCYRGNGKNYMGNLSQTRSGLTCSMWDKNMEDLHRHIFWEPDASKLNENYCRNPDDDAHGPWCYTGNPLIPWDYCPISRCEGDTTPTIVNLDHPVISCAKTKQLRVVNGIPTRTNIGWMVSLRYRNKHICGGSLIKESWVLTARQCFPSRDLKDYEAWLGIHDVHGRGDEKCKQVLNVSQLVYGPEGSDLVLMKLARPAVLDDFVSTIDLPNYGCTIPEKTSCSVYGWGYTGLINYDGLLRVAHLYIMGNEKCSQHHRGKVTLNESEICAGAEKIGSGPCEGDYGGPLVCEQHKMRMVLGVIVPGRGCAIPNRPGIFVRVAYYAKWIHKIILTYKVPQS
T2 sequence (Q08048 33-728 limits assumed): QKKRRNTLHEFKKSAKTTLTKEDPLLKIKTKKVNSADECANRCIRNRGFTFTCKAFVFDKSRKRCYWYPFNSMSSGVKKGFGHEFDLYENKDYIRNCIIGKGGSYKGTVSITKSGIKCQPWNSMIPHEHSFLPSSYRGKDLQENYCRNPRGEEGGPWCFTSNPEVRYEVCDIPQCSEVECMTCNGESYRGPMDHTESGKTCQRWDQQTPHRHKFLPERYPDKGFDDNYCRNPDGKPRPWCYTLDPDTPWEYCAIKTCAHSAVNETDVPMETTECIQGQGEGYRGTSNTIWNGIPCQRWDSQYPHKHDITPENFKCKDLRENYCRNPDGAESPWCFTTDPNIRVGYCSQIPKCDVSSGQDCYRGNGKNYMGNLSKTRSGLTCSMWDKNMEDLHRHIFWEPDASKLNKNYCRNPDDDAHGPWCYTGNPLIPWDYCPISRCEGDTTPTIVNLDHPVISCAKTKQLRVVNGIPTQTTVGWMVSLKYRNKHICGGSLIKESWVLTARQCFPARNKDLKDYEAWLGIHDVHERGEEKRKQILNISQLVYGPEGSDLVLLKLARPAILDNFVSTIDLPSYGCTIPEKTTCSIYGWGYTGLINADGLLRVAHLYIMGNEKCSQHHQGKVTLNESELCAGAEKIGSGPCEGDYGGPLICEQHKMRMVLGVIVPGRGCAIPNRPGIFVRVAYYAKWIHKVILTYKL

B1: antibody 3.10.1 (antibody, human IgG1, kappa, V domains shown)
VH: QVQLQQWGAGLLKPSETLSLTCAVYGGSFSTYYWSWIRQPPGKGLEWIGEINHSGSTNYNPSLKSRVTISVDTSKNQFSLKLSSVTAADTAVYYCARGGYDFWSGYYDYWGQGTLVTVSS
VL: not shown
notes: also called antibody to HGF ultimately derived from hybridoma 3.10.1
B1: in assay [1], the Kd is about 0.47 nM, the koff was found to be 3e-05 s⁻¹ and the kon was determined as 65000 M⁻¹ s⁻¹. This molecule also registered an IC50 in assay [2] of 0.9 nM. For the same molecule, the “IC50, inhibition of growth/survival of U-87 MG cells” value in assay [3] was under 100 nM. For the same molecule, the binding result with mouse HGF [4] was “no binding”. In assay [5], this molecule yielded an IC50 of 0.37 nM.

B2: antibody 1.29.1 (antibody, human IgG2, kappa, V domains shown)
VH: QVQLVESGGGVVQPGRSLRLSCAASGFTFSSYGMHWVRQAPGKGLEWVAVIWYDGSDKYYADSVKGRFTISRDNSKNTLYLQMNSLRAEDTAVYYCAREDYGEGFDYWGQGTLVTVSS
VL: not shown
notes: also called antibody to HGF ultimately derived from hybridoma 1.29.1
In assay [1], B2 showed an equilibrium dissociation constant (Kd) of about 0.79 nM, a koff of 4.8e-05 s⁻¹ and a kon of 62000 M⁻¹ s⁻¹. In assay [2], this molecule showed an IC50 of 3.2 nM. The molecule further displayed a Kd in assay [6] of 0.034 nM. Besides, the “IC50, inhibition of growth/survival of U-87 MG cells” value in assay [3] was under 100 nM. Further, the binding result in the assay with mouse HGF [7] is “no binding (tested: 100 ng and 10 ng per lane)”. In addition, the concentration for half-maximal inhibition (IC50) in assay [5] was found to be 1.93 nM.

B3: antibody 1.74.3 (antibody, human IgG2, kappa, V domains shown)
VH: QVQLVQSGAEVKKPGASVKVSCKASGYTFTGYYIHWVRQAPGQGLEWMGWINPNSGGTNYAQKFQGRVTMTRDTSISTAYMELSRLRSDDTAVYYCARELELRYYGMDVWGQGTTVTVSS
VL: DIQMTQSPSSLSASVGDRVTITCRASQSINSDLNWYQQKPGKVPKLLIYVASSLQNGVPSRFSGSGSGTDFTLTISSLQPEDFATYYCQRSYSTPPTFGPGTKVDIKR
notes: also called 1.74.1; 1.74.2
For the molecule B3, the Kd in assay [1] is about 0.36 nM; in assay [6], 0.041 nM. In assay [1], this molecule had a dissociation rate constant (koff) of 4.7e-05 s⁻¹. In assay [1], this molecule came in with an on-rate (kon) of 130000 M⁻¹ s⁻¹. Also, the IC50 worked out at 3.7 nM in assay [2] and 2.31 nM in assay [5]. For the same molecule, the “IC50, inhibition of growth/survival of U-87 MG cells” value in assay [3] was under 100 nM. Besides, the binding result with mouse HGF [4] is given as “no binding”.

What is called Kd is the equilibrium constant for the complex coming apart. A word on the koff: it is a measure of how fast the partners let go of each other. As usually defined, the kon is the second-order rate constant of association. Read a high kon as fast association. For orientation: IC50 means the midpoint of a concentration-inhibition curve. Higher therefore signals lower potency.

The values above are taken from patent publication US20140154243A1 (Amgen, published 2014).
